Assay results taken from US20210403576A1 (HELIXMITH, published 2021).
Numbering of substitutions follows the chain as printed.

B1: VH4/Vk2 (antibody, IgG1, V domains shown)
VH: QVQLVQSGAEVKKPGSSVKVSCQGSGYSFPTHWITWVRQAPGQGLEWMGTIDPTDSYNFYGPSFQGRVTITADSSTSTAYMELSSLRSEDTAMYYCARDGNYYDSRGYYYDTFDMWGQGTLVTVSS
VL: DIQMTQSPSSLSASVGDRVTITCRASQGISTYLAWYQQKPGKAPKLLIYSASTLESGVPSRFSGSGSGTDFTLTISSLQPEDFATYYCQQADSFPLTFGGGTKVEIK
notes: Full IgG1/kappa expressed in HEK 293 EBNA cells
B2: VH3/Vk2 (antibody, IgG1, V domains shown)
VH: B1 VH with M81L, E82Q, L83W, R87K, S88A, E89S
VL: B1 VL
notes: as for B1
B3: VH4/Vk0 (antibody, IgG1, V domains shown)
VH: B1 VH
VL: B1 VL with S10F, K42T, F83S
notes: as for B1
B4: VH5/Vk0 (antibody, IgG1, V domains shown)
VH: B1 VH with M93V
VL: B1 VL with S10F, K42T, F83S
notes: as for B1
B5: VH5/Vk2 (antibody, IgG1, V domains shown)
VH: B1 VH with M93V
VL: B1 VL
notes: as for B1
B6: VH6/Vk0 (antibody, IgG1, V domains shown)
VH: B1 VH with Q23K, G24A, S74K, M93V
VL: B1 VL with S10F, K42T, F83S
notes: as for B1
B7: VH6/Vk2 (antibody, IgG1, V domains shown)
VH: B1 VH with Q23K, G24A, S74K, M93V
VL: B1 VL
notes: as for B1
B8: VH5/Vk4 (antibody, IgG1, V domains shown)
VH: B1 VH with M93V
VL: EIQMTQSPGTLSLSPGERATLSCRASQGISTYLAWYQQKPGQAPRLLIYSASTLESGVPDRFSGSGSGTDFTLTISRLEPEDFATYYCQQADSFPLTFGGGTKVEIK
notes: as for B1
B9: VH4/Vk3 (antibody, IgG1, V domains shown)
VH: B1 VH
VL: B8 VL with E1D, T10F
notes: as for B1
B10: VH4/Vk4 (antibody, IgG1, V domains shown)
VH: B1 VH
VL: B8 VL
notes: as for B1
B11: VH4/Vk5 (antibody, IgG1, V domains shown)
VH: B1 VH
VL: B8 VL with Q3V, M4L, V58I
notes: as for B1
B12: VH5/Vk3 (antibody, IgG1, V domains shown)
VH: B1 VH with M93V
VL: B8 VL with E1D, T10F
notes: as for B1
B13: VH5/Vk5 (antibody, IgG1, V domains shown)
VH: B1 VH with M93V
VL: B8 VL with Q3V, M4L, V58I
notes: as for B1
B14: VH6/Vk3 (antibody, IgG1, V domains shown)
VH: B1 VH with Q23K, G24A, S74K, M93V
VL: B8 VL with E1D, T10F
notes: as for B1
B15: VH6/Vk4 (antibody, IgG1, V domains shown)
VH: B1 VH with Q23K, G24A, S74K, M93V
VL: B8 VL
notes: as for B1
B16: VH6/Vk5 (antibody, IgG1, V domains shown)
VH: B1 VH with Q23K, G24A, S74K, M93V
VL: B8 VL with Q3V, M4L, V58I
notes: as for B1
B17: VH0/Vk0 (antibody, IgG1, V domains shown)
VH: QVQLVQSGAEVKKPGESLRISCQGSGYSFPTHWITWVRQMPGKGLEWMGTIDPTDSYNFYGPSFQGHVTISADSSSSTAYLQWSSLKASDTAMYYCARDGNYYDSRGYYYDTFDMWGQGTLVTVSS
VL: B1 VL with S10F, K42T, F83S
notes: Full IgG1/kappa with the variable domains of 1E4; also called 1E4 antibody variant including the constant domain where the residues were substituted
B18: VH0/Vk2 (antibody, IgG1, V domains shown)
VH: B17 VH
VL: B1 VL
notes: as for B1
B19: VH2/Vk0 (antibody, IgG1, V domains shown)
VH: B17 VH with Q1E, R19K, Q23K, H67Q, S74K, S76I
VL: B1 VL with S10F, K42T, F83S
notes: as for B1
B20: VH2/Vk5 (antibody, IgG1, V domains shown)
VH: B17 VH with Q1E, R19K, Q23K, H67Q, S74K, S76I
VL: B8 VL with Q3V, M4L, V58I
notes: as for B1

What was measured:
[1] = molecular target: T1, human c-Met (Sino Biological) (human, UniProt P08581 25-932, limits assumed); test: SPR (Biacore T200), IgG captured on Protein A CM5 chip, c-Met 0.15-2 nM as analyte
T1 construct: Analyte in the Biacore assay; also called antigen (c-Met); printed as "human c-Met antibody (Sino Biological, Beijing, China)"
Procedure: (§1) The candidate antibodies selected in Example 4 were measured for binding affinity for the antigen (c-Met) with the aid of Biacore. […] The anti-c-Met antibodies to be analyzed were immobilized on Protein A CM5 chips (GE Healthcare, Little Chalfont, UK) through which human c-Met antibody (Sino Biological, Beijing, China) with various concentrations ranging 0.15 to 2 nM was allowed to pass, thereby acquiring sensorgrams. On the basis of the acquired sensorgrams, association constants kₒₙ and dissociation constants koff were measured to calculate Ko value, the ratio koff/kₒₙ.

[2] = molecular target: T1, human c-Met (Sino Biological); test: derived from the Biacore KD, printed 'Average' 3.52 x10^-10 M divided by the KD
Procedure: as §1
(§2) In order to select a final candidate group from the 21 candidate antibodies selected in Example 4, comparison was made according to criteria specified into expression level, binding affinity for antigen, thermal stability, and biopotency. As a rule, the expression level is considered to be the most important index when time and cost are taken into consideration from a point of view of production. […] Thereafter, degrees of improvement in each of the remaining candidate antibodies compared to the reference antibody (VH0/Vk0) were digitized with regard to the selected indices. For normalization, analysis index measurements for individual candidate antibodies were divided by average values to give ratios (index 1) which were in turn divided by the measurement for the antibody VH0/Vk0 (index 2) (Tables 6 to 9). In addition, the measurements for the four indices were multiplied for comprehensive comparison of the four indices of the candidate antibodies. The final results (index 3) are listed in a descending order in Table 10.

[3] = molecular target: T1, human c-Met (Sino Biological); test: derived from the Biacore KD, normalised to VH0/Vk0
Procedure: as §1, §2

[4] = molecular target: c-Met protein receptors on HUVEC (human, UniProt P08581 25-1390); test: cell-based or functional assay
Chain of c-Met protein receptors on HUVEC (P08581 25-1390): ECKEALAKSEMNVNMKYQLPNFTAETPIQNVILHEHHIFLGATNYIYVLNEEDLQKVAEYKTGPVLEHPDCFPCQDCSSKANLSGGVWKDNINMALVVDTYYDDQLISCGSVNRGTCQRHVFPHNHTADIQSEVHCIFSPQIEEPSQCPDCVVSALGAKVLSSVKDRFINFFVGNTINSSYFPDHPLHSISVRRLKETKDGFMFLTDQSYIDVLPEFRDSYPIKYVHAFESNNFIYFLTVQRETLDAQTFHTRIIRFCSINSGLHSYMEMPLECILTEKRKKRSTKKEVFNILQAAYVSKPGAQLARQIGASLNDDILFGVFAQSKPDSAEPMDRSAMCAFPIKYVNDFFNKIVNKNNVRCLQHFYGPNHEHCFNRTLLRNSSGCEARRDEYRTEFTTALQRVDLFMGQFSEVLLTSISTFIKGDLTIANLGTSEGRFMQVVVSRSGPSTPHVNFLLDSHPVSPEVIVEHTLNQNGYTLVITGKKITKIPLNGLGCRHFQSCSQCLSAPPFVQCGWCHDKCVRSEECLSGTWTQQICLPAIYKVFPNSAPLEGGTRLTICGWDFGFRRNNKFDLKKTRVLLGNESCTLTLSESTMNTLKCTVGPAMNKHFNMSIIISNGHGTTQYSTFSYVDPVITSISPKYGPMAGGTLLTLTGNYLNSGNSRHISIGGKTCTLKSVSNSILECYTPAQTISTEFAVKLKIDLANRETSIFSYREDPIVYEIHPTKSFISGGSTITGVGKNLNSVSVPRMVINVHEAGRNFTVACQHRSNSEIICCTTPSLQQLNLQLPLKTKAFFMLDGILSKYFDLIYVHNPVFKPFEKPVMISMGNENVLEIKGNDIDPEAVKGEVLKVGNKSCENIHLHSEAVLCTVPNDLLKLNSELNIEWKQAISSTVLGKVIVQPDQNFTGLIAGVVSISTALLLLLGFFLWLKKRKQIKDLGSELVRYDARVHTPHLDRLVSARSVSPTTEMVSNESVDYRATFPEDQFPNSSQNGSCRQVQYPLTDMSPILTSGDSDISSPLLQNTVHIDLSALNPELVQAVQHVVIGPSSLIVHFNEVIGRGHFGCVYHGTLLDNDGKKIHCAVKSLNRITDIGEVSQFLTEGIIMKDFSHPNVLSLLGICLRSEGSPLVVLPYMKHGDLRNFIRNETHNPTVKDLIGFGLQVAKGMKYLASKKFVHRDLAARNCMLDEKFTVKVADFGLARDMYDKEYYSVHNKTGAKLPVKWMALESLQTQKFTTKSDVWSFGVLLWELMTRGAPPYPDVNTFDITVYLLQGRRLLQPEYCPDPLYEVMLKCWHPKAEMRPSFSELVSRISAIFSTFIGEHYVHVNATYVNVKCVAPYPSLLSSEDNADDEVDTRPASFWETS

T1 sequence (P08581 25-932 limits assumed): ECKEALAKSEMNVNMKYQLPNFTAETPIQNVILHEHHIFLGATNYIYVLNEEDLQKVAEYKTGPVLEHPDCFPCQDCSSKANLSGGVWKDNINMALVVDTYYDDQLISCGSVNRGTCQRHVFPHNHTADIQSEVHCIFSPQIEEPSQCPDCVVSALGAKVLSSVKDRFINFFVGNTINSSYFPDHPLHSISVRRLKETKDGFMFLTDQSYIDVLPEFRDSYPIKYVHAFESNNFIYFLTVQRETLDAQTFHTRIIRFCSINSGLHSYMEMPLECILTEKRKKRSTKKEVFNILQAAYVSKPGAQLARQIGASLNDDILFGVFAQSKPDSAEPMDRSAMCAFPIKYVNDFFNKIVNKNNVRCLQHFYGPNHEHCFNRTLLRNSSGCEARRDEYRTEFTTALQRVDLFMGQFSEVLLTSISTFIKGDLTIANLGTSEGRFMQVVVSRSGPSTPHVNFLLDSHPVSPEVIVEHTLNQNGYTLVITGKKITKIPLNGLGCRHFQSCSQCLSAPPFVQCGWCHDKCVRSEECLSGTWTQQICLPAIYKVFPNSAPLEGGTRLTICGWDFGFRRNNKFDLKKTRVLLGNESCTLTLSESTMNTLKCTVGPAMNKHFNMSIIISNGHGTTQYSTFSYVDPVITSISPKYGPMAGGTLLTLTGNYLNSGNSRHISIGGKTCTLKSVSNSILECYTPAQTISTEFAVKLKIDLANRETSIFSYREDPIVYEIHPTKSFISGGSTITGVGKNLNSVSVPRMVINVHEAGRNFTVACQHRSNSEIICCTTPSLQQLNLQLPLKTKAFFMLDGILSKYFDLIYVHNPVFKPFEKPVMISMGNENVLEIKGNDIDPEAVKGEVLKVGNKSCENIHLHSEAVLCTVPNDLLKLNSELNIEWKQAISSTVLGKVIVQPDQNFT

Row | Kd [1] [nM] | Relative KD to VMDO2 VH0/Vk0 [1] | Index 1 (binding affinity, inverse KD relative to the Average 3.52) [2] | Index 2 (binding affinity, inverse KD relative to VH0/Vk0) [3] | Index 1 (Relative Migration divided by the Average 157.5), HUVEC migration assay [4] | Index 2 (Relative Migration relative to VH0/Vk0), HUVEC migration assay [4] | Relative Migration (%), HUVEC migration assay, 90 ng/ml [4] [%] | Binder
1 | 0.423 | 0.81 | 0.832 | 1.23 | 1.13 | 1.19 | 177 | B1
2 | 0.477 | 0.92 | 0.738 | 1.09 | 1.04 | 1.09 | 164 | B2
3 | 0.395 | 0.76 | 0.891 | 1.32 | 0.773 | 0.812 | 122 | B3
4 | 0.352 | 0.68 | 1 | 1.48 | 0.813 | 0.855 | 128 | B4
5 | 0.42 | 0.81 | 0.838 | 1.24 | 1.12 | 1.18 | 176 | B5
6 | 0.414 | 0.8 | 0.85 | 1.26 | 0.962 | 1.01 | 152 | B6
7 | 0.44 | 0.85 | 0.8 | 1.18 | 0.979 | 1.03 | 154 | B7
8 | 0.349 | 0.67 |  |  |  |  |  | B8
9 | 0.422 | 0.81 |  |  |  |  |  | B9
10 | 0.372 | 0.72 |  |  |  |  |  | B10
11 | 0.526 | 1.01 | 0.669 | 0.989 | 1.09 | 1.14 | 171 | B11
12 | 0.402 | 0.77 |  |  |  |  |  | B12
13 | 0.506 | 0.97 |  |  |  |  |  | B13
14 | 0.431 | 0.83 |  |  |  |  |  | B14
15 | 0.391 | 0.75 |  |  |  |  |  | B15
16 | 0.557 | 1.07 |  |  |  |  |  | B16
17 | 0.52 | 1 | 0.677 | 1 | 0.951 | 1 | 150 | B17
18 | 0.512 | 0.98 | 0.688 | 1.02 | 1.03 | 1.09 | 163 | B18
19 | 0.534 | 1.03 | 0.659 | 0.974 | 0.993 | 1.04 | 156 | B19
20 | 0.685 | 1.32 |  |  |  |  |  | B20
